Assay results published in EP4722370A1.

Tests used:
[1] = molecular target: his-tagged DLL3 antigen protein (UniProt Q9NYJ7); assay: flow cytometry; transduced T cells with 3 ug/ml his-tagged DLL3, AF647 secondary antibody
[2] = molecular target: his-tagged DLL3 antigen protein (UniProt Q9NYJ7); assay: flow cytometry; transduced T cells, method of the earlier example (his-tagged DLL3 staining)

Chain of UniProt Q9NYJ7 (Q9NYJ7 27-492 limits assumed): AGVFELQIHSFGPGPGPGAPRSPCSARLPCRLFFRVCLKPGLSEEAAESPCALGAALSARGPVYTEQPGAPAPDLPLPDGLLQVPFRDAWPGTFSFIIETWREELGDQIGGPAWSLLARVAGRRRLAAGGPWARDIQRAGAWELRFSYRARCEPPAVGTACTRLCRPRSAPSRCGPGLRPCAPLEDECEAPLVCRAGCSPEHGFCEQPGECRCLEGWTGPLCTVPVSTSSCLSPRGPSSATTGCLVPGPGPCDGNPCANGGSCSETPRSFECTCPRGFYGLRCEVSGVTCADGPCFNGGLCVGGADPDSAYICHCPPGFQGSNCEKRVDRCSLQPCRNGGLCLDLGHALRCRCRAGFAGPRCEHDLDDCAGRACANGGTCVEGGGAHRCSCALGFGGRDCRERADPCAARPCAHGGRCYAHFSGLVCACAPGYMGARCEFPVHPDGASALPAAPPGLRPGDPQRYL

B1: DLL3-CAR09 (protein)
chain: DIVMTQSPLSLPVTPGEPASISCRASQTISDYLHWYLQKPGQSPQLLIKYASQSISGVPDRFSGSGSGSDFTLKISRVEAEDVGVYYCQQGHSFPLTFGQGTKLEIKGGGGSGGGGSGGGGSEVQLVQSGAEVKKPGASVKVSCKASGYTFTSYWMHWVRQAPGQRLEWMGTIYPGNSDTRYNQKFKDRVTITADTSASTAYMELSSLRSEDTAVYYCTRSYDYGDLDYWGQGTTVTVSSAAAIEVMYPPPYLDNEKSNGTIIHVKGKHLCPSPLFPGPSKPFWVLVVVGGVLACYSLLVTVAFIIFWVRSKRSRLLHSDYMNMTPRRPGPTRKHYQPYAPPRDFAAYRSRVKFSRSADAPAYQQGQNQLYNELNLGRREEYDVLDKRRGRDPEMGGKPRRKNPQEGLYNELQKDKMAEAYSEIGMKGERRRGKGHDGLYQGLSTATKDTYDALHMQALPPR
[1]
  CAR expression level (% of T cells stained with his-tagged DLL3 antigen protein): 69%
[2]
  CAR expression level (% of T cells stained with his-tagged DLL3 antigen protein): 74%
